The term Kd denotes a measure of binding affinity in units of concentration. Lower therefore signals higher affinity.

Drawing on publication PMC7181697, this text covers Kd for one molecule.

The target in experiment [1] is REV7^Y63A-SHLD3(1–82) (human) (UniProt Q9UI95). Nature of the experiment: ITC; method not named in the sentence (Supplementary Fig. 7e, f); ITC is the only method for affinities that the methods describe.
Experiment [2] has as its target REV7^W171A-SHLD3(1–82) (human) (UniProt Q9UI95). Described as above.

Sequence of REV7^W171A-SHLD3(1–82) (human) (Q9UI95 whole entry W171A, chain 1 of 2): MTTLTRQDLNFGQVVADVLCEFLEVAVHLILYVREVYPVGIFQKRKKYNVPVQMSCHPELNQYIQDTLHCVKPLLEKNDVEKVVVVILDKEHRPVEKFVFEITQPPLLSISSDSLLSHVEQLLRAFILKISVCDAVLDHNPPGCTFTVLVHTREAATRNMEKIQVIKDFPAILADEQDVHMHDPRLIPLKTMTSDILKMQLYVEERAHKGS
Sequence of REV7^W171A-SHLD3(1–82) (human) (Q6ZNX1 1-82, chain 2 of 2, further chain): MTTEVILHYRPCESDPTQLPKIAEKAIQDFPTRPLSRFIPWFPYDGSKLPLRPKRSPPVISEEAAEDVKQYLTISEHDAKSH
Sequence of REV7^Y63A-SHLD3(1–82) (human) (Q9UI95 whole entry Y63A, chain 1 of 2): as the sequence (Q9UI95 whole entry W171A, chain 1 of 2) above, with Y63A, A171W counted along it
Sequence of REV7^Y63A-SHLD3(1–82) (human) (Q6ZNX1 1-82, chain 2 of 2, further chain): as the sequence (Q6ZNX1 1-82, chain 2 of 2, further chain) above

B1: MBP-REV3(1847–2021) (domain or fragment)
chain: MLTPTPDSSPRSTSSPSQSKNGSFTPRTANILKPLMSPPSREEIMATLLDHDLSETIYQEPFCSNPSDVPEKPREIGGRLLMVETRLANDLAEFEGDFSLEGLRLWKTAFSAMTQNPRPGSPLRSGQGVVNKGSSNSPKMVEDKKIVIMPCKCAPSRQLVQVWLQAKEEYERSKK
As for B1, the Kd in experiment [1] stood at 37 µM; in experiment [2], 1.1 µM.
